Experimental data reported in patent US20260184777A1 (BEIJING SUNGEN BIOMEDICAL TECHNOLOGY, published 2026).

B1: CM-78 (antibody, human IgG4 S228P, lambda, V domains shown)
VH: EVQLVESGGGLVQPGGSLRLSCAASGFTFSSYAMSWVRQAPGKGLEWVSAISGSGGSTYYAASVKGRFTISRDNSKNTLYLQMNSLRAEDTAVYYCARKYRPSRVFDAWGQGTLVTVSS
VL: SYELTQPPSVSVAPGQTARITCSGDALGDKYASWYQQKPGQAPVLVIYEDAHRPSGIPERFSGSNSGNTATLTISGTQAEDEADYYCQSNDADAVWVFGGGTKLTVLG
B2: CM-81 (antibody, human IgG4 S228P, lambda, V domains shown)
VH: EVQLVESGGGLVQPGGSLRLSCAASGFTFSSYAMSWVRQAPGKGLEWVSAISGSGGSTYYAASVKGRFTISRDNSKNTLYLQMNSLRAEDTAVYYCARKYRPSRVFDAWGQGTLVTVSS
VL: SYELTQPPSVSVAPGQTARITCSGDALGDKYASWYQQKPGQAPVLVIYEDAKRDSGIPERFSGSNSGNTATLTISGTQAEDEADYYCQSNDADAVWVFGGGTKLTVLG
B3: CM-90 (antibody, human IgG4 S228P, lambda, V domains shown)
VH: EVQLVESGGGLVQPGGSLRLSCAASGFTFSDYAMSWVRQAPGKGLEWVSAISGSGGSTYYAASVKGRFTISRDNSKNTLYLQMNSLRAEDTAVYYCARKYRPSRVFDAWGQGTLVTVSS
VL: SYELTQPPSVSVAPGQTARITCSGDALHDKYASWYQQKPGQAPVLVIYEDAKRPSGIPERFSGSNSGNTATLTISGTQAEDEADYYCQSNDADAVWVFGGGTKLTVLG
B4: CM-95 (antibody, human IgG4 S228P, lambda, V domains shown)
VH: EVQLVESGGGLVQPGGSLRLSCAASGFTFSDYAMSWVRQAPGKGLEWVSAISGSGGSTYYAASVKGRFTISRDNSKNTLYLQMNSLRAEDTAVYYCARKYRPSRVFDAWGQGTLVTVSS
VL: SYELTQPPSVSVAPGQTARITCSGDALGDKYASWYQQKPGQAPVLVIYEHHKRPSGIPERFSGSNSGNTATLTISGTQAEDEADYYCQSNDADAVWVFGGGTKLTVLG
B5: CM-79 (antibody, human IgG4 S228P, lambda, V domains shown)
VH: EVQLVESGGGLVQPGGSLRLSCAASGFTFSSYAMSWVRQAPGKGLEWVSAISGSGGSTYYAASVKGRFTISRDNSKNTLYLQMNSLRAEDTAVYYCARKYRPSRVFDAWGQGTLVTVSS
VL: SYELTQPPSVSVAPGQTARITCSGDALGDKYASWYQQKPGQAPVLVIYEDAKRNSGIPERFSGSNSGNTATLTISGTQAEDEADYYCQSNDADAVWVFGGGTKLTVLG
B6: CM-96 (antibody, human IgG4 S228P, lambda, V domains shown)
VH: EVQLVESGGGLVQPGGSLRLSCAASGFTFSDYAMSWVRQAPGKGLEWVSAISGSGGSTYYAASVKGRFTISRDNSKNTLYLQMNSLRAEDTAVYYCARKYRPSRVFDAWGQGTLVTVSS
VL: SYELTQPPSVSVAPGQTARITCSGDALGDKYMSWYQQKPGQAPVLVIYEDAKRPSGIPERFSGSNSGNTATLTISGTQAEDEADYYCQSNDADAWWVFGGGTKLTVLG
B7: CM-97 (antibody, human IgG4 S228P, lambda, V domains shown)
VH: EVQLVESGGGLVQPGGSLRLSCAASGFTFSDYAMSWVRQAPGKGLEWVSAISGSGGSTYYAASVKGRFTISRDNSKNTLYLQMNSLRAEDTAVYYCARKYRPSRVFDAWGQGTLVTVSS
VL: SYELTQPPSVSVAPGQTARITCSGDALGDKYASWYQQKPGQAPVLVIYEDAKRPYGIPERFSGSNSGNTATLTISGTQAEDEADYYCQSNDADAWWVFGGGTKLTVLG
B8: CM-98 (antibody, human IgG4 S228P, lambda, V domains shown)
VH: EVQLVESGGGLVQPGGSLRLSCAASGFTFSDYAMSWVRQAPGKGLEWVSAISGSGGSTYYAASVKGRFTISRDNSKNTLYLQMNSLRAEDTAVYYCARKYRPSRVFDAWGQGTLVTVSS
VL: SYELTQPPSVSVAPGQTARITCSGDALGDKYASWYQQKPGQAPVLVIYEDAKRPWGIPERFSGSNSGNTATLTISGTQAEDEADYYCQSNDADAWWVFGGGTKLTVLG
B9: CM-89 (antibody, human IgG4 S228P, lambda, V domains shown)
VH: EVQLVESGGGLVQPGGSLRLSCAASGFTFSDYAMSWVRQAPGKGLEWVSAISGSGGSTYYAASVKGRFTISRDNSKNTLYLQMNSLRAEDTAVYYCARKYRPSRVFDAWGQGTLVTVSS
VL: SYELTQPPSVSVAPGQTARITCSGDALGDKYASWYQQKPGQAPVLVIYEDAKRPSGIPERFSGSNSGNTATLTISGTQAEDEADYYCQSNDADAYWVFGGGTKLTVLG
B10: CM-85 (antibody, human IgG4 S228P, lambda, V domains shown)
VH: EVQLVESGGGLVQPGGSLRLSCAASGYTFSSYAMSWVRQAPGKGLEWVSAISGSGGSTYYAASVKGRFTISRDNSKNTLYLQMNSLRAEDTAVYYCARKYRPSRVFDAWGQGTLVTVSS
VL: SYELTQPPSVSVAPGQTARITCSGDALGDKYASWYQQKPGQAPVLVIYEDAKRPSGIPERFSGSNSGNTATLTISGTQAEDEADYYCQSNDADAVWVFGGGTKLTVLG
B11: CM-99 (antibody, human IgG4 S228P, lambda, V domains shown)
VH: EVQLVESGGGLVQPGGSLRLSCAASGFTFSDYAMSWVRQAPGKGLEWVSAISGSGGSHYYAASVKGRFTISRDNSKNTLYLQMNSLRAEDTAVYYCARKYRPSRVFDAWGQGTLVTVSS
VL: SYELTQPPSVSVAPGQTARITCSGDALGDKYASWYQQKPGQAPVLVIYEDAKRPSGIPERFSGSNSGNTATLTISGTQAEDEADYYCQSNDADAVWVFGGGTKLTVLG
B12: CM-92 (antibody, human IgG4 S228P, lambda, V domains shown)
VH: EVQLVESGGGLVQPGGSLRLSCAASGFTFSDYAMSWVRQAPGKGLEWVSAISGSGGSTYYAASVKGRFTISRDNSKNTLYLQMNSLRAEDTAVYYCARKYRPSRVFDAWGQGTLVTVSS
VL: SYELTQPPSVSVAPGQTARITCSGDALHDKYASWYQQKPGQAPVLVIYEDAKRPSGIPERFSGSNSGNTATLTISGTQAEDEADYYCQSNDADAYWVFGGGTKLTVLG
B13: CM-91 (antibody, human IgG4 S228P, lambda, V domains shown)
VH: EVQLVESGGGLVQPGGSLRLSCAASGFTFSDYAMSWVRQAPGKGLEWVSAISGSGGSTYYAASVKGRFTISRDNSKNTLYLQMNSLRAEDTAVYYCARKYRPSRVFDAWGQGTLVTVSS
VL: SYELTQPPSVSVAPGQTARITCSGDALHDKYAAWYQQKPGQAPVLVIYEDAKRPSGIPERFSGSNSGNTATLTISGTQAEDEADYYCQSNDADAVWVFGGGTKLTVLG
B14: CM-87 (antibody, human IgG4 S228P, lambda, V domains shown)
VH: EVQLVESGGGLVQPGGSLRLSCAASGFTFSDYAMSWVRQAPGKGLEWVSAISGSGGSTYYAASVKGRFTISRDNSKNTLYLQMNSLRAEDTAVYYCARKYRPSRVFDAWGQGTLVTVSS
VL: SYELTQPPSVSVAPGQTARITCSGDALGDKYASWYQQKPGQAPVLVIYEDAKRPSGIPERFSGSNSGNTATLTISGTQAEDEADYYCQSNDADAWWVFGGGTKLTVLG
B15: CM-93 (antibody, human IgG4 S228P, lambda, V domains shown)
VH: EVQLVESGGGLVQPGGSLRLSCAASGFTFSDYAMSWVRQAPGKGLEWVSAISGSGGSTYYAASVKGRFTISRDNSKNTLYLQMNSLRAEDTAVYYCARKYRPSRVFDAWGQGTLVTVSS
VL: SYELTQPPSVSVAPGQTARITCSGDALGDKYASWYQQKPGQAPVLVIYEDAKRPDGIPERFSGSNSGNTATLTISGTQAEDEADYYCQSNDADAYWVFGGGTKLTVLG
B16: CM-86 (antibody, human IgG4 S228P, lambda, V domains shown)
VH: EVQLVESGGGLVQPGGSLRLSCAASGFTFSSHAMSWVRQAPGKGLEWVSAISGSGGSTYYAASVKGRFTISRDNSKNTLYLQMNSLRAEDTAVYYCARKYRPSRVFDAWGQGTLVTVSS
VL: SYELTQPPSVSVAPGQTARITCSGDALGDKYASWYQQKPGQAPVLVIYEDAKRPSGIPERFSGSNSGNTATLTISGTQAEDEADYYCQSNDADAVWVFGGGTKLTVLG
B17: CM-80 (antibody, human IgG4 S228P, lambda, V domains shown)
VH: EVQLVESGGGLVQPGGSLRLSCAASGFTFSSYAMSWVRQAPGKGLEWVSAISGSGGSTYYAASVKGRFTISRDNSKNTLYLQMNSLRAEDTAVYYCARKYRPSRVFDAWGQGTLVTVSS
VL: SYELTQPPSVSVAPGQTARITCSGDALGDKYASWYQQKPGQAPVLVIYEDAKRQSGIPERFSGSNSGNTATLTISGTQAEDEADYYCQSNDADAVWVFGGGTKLTVLG
B18: CM-84 (antibody, human IgG4 S228P, lambda, V domains shown)
VH: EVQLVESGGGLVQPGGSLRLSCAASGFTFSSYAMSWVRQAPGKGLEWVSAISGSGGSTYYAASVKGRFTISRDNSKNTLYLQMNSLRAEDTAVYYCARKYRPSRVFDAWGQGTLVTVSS
VL: SYELTQPPSVSVAPGQTARITCSGDALGDKYASWYQQKPGQAPVLVIYEDAKRPDGIPERFSGSNSGNTATLTISGTQAEDEADYYCQSNDADAYWVFGGGTKLTVLG
B19: CM-82 (antibody, human IgG4 S228P, lambda, V domains shown)
VH: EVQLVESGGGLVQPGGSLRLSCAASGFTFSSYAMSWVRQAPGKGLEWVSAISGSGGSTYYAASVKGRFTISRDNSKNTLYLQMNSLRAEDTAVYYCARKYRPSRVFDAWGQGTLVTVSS
VL: SYELTQPPSVSVAPGQTARITCSGDALGDKYASWYQQKPGQAPVLVIYEDAKRPWGIPERFSGSNSGNTATLTISGTQAEDEADYYCQSNDADAVWVFGGGTKLTVLG
B20: CM-88 (antibody, human IgG4 S228P, lambda, V domains shown)
VH: EVQLVESGGGLVQPGGSLRLSCAASGFTFSDYAMSWVRQAPGKGLEWVSAISGSGGSTYYAASVKGRFTISRDNSKNTLYLQMNSLRAEDTAVYYCARKYRPSRVFDAWGQGTLVTVSS
VL: SYELTQPPSVSVAPGQTARITCSGDALGDKYASWYQQKPGQAPVLVIYEDAKRPSGIPERFSGSNSGNTATLTISGTQAEDEADYYCQSNDADARWVFGGGTKLTVLG
B21: CM-94 (antibody, human IgG4 S228P, lambda, V domains shown)
VH: EVQLVESGGGLVQPGGSLRLSCAASGFTFSDYAMSWVRQAPGKGLEWVSAISGSGGSTYYAASVKGRFTISRDNSKNTLYLQMNSLRAEDTAVYYCARKYRPSRVFDAWGQGTLVTVSS
VL: SYELTQPPSVSVAPGQTARITCSGDALHDKYASWYQQKPGQAPVLVIYEHHKRPSGIPERFSGSNSGNTATLTISGTQAEDEADYYCQSNDADAVWVFGGGTKLTVLG
B22: CM-83 (antibody, human IgG4 S228P, lambda, V domains shown)
VH: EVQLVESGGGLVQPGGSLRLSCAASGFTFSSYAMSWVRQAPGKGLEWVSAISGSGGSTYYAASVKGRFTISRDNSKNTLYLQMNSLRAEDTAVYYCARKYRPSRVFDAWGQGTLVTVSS
VL: SYELTQPPSVSVAPGQTARITCSGDALGDKYASWYQQKPGQAPVLVIYEDAKRPDGIPERFSGSNSGNTATLTISGTQAEDEADYYCQSNDADAVWVFGGGTKLTVLG

Target: T1, human S100A8/A9 heterodimeric antigen, His-tagged (hS100A8/A9-His) (human, UniProt P05109 1-93; P06702 1-114)
T1 sequence 1: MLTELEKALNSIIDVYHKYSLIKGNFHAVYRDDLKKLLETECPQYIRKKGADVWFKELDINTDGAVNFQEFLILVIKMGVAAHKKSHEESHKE
T1 sequence 2: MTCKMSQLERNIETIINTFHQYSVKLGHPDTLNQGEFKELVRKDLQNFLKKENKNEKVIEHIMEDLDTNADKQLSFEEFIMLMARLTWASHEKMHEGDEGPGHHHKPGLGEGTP
Assay: cell-based or functional assay

Binder | Relative IC50 (IC50 relative to CM-1), IL-6 release from hS100A8/A9-activated human PBMCs
B1 | 0.99 relative to CM-1
B2 | 2.51 relative to CM-1
B3 | 1.54 relative to CM-1
B4 | 1.11 relative to CM-1
B5 | 0.695 relative to CM-1
B6 | 1.47 relative to CM-1
B7 | 0.599 relative to CM-1
B8 | 0.703 relative to CM-1
B9 | 0.572 relative to CM-1
B10 | 1.86 relative to CM-1
B11 | 1.3 relative to CM-1
B12 | 0.697 relative to CM-1
B13 | 1.1 relative to CM-1
B14 | 0.749 relative to CM-1
B15 | 0.953 relative to CM-1
B16 | 1.27 relative to CM-1
B17 | 0.943 relative to CM-1
B18 | 0.393 relative to CM-1
B19 | 0.156 relative to CM-1
B20 | 1.01 relative to CM-1
B21 | 2.81 relative to CM-1
B22 | 2.48 relative to CM-1
